Assay results: paper PMC9482650, “Quantitative fragmentomics allow affinity mapping of interactomes” (Nature Communications, 2022)

T1: MPP2, Q14168
T1 sequence (Q14168 180-250, limits assumed, looked up): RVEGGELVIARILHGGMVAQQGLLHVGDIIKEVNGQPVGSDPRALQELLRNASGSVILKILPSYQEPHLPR

T2: LNX2_2, Q8N448
T2 sequence (Q8N448 334-432, limits assumed, looked up): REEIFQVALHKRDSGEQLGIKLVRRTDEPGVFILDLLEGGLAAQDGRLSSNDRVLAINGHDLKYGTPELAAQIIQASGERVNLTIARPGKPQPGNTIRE

T3: SYNJ2BP, P57105
T3 sequence (P57105 8-110, limits assumed, looked up): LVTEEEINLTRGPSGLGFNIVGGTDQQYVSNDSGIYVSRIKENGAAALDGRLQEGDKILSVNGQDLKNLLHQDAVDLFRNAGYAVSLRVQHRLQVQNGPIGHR

T4: TIAM2, Q8IVF5
T4 sequence (Q8IVF5 885-986, limits assumed, looked up): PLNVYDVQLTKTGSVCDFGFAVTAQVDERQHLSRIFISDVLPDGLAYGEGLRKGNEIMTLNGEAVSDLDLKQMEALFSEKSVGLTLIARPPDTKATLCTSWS

T5: NHERF3_1, Q5T2W1
T5 sequence (Q5T2W1 4-100, limits assumed, looked up): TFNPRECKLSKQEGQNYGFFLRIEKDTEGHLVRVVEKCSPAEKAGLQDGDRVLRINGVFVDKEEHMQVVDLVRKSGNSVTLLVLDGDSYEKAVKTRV

T6: APBA1_2, Q02410
T6 sequence (Q02410 742-832, limits assumed, looked up): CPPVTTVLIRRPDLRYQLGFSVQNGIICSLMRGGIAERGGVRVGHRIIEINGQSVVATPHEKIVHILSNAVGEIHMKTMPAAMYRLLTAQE

T7: DLG3_3, Q92796
T7 sequence (Q92796 374-475, limits assumed, looked up): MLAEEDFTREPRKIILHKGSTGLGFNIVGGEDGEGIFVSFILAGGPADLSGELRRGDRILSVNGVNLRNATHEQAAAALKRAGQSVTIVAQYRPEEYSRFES

T8: GRIP1_3, Q9Y3R0
T8 sequence (Q9Y3R0 247-346, limits assumed, looked up): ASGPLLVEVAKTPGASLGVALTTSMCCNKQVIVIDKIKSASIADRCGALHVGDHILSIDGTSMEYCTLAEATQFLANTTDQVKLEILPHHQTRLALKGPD

T9: DLG3_1, Q92796
T9 sequence (Q92796 125-227, limits assumed, looked up): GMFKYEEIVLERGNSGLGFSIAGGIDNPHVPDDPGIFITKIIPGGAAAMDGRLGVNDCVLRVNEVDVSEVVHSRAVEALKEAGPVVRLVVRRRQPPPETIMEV

T10: RHPN1, Q8TCX5
T10 sequence (Q8TCX5 508-602, limits assumed, looked up): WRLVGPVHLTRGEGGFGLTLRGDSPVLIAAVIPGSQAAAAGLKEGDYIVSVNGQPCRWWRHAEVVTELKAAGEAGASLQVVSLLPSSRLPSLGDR

T11: APBA1_1, Q02410
T11 sequence (Q02410 651-752, limits assumed, looked up): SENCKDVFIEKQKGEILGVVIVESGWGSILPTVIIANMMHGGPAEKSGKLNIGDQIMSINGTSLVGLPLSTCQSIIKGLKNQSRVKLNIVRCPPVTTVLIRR

T12: GRIP1_5, Q9Y3R0
T12 sequence (Q9Y3R0 568-668, limits assumed, looked up): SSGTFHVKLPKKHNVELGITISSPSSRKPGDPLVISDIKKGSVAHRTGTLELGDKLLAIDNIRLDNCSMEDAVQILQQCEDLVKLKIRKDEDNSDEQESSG


What was measured:
Test in all cases: holdup assay
Set-up in all cases: key: below the threshold = too weak to quantify, mostly under pKd 3.1 to 4
Conditions in all cases: plain residues with an end cap or a label only (N-terminal biotin on a linker: ado-ado)
[1] = target: NOS1, P29475
NOS1, P29475, sequence (P29475 9-101): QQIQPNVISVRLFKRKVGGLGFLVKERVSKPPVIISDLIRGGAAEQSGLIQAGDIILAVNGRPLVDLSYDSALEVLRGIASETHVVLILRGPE

[2] = target: SNX27, Q96L92
[3] = target: T1, MPP2, Q14168
[4] = target: MAGI1_1, Q96QZ7
MAGI1_1, Q96QZ7, sequence (Q96QZ7 1-106): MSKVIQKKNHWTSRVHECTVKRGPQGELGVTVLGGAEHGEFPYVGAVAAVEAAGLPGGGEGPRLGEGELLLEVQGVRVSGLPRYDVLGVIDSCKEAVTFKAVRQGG

[5] = target: GRIP2_5, Q9C0E4
GRIP2_5, Q9C0E4, sequence (Q9C0E4 544-642): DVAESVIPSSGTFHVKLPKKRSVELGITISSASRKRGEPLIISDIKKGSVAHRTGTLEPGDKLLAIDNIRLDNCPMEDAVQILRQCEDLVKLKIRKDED

[6] = target: T2, LNX2_2, Q8N448
[7] = target: FRMPD2_3, Q68DX3
FRMPD2_3, Q68DX3, sequence (Q68DX3 1073-1166): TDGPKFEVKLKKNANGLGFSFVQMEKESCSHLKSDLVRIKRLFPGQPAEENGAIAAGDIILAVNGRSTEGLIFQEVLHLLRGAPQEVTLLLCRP

[8] = target: T3, SYNJ2BP, P57105
[9] = target: T4, TIAM2, Q8IVF5
[10] = target: T5, NHERF3_1, Q5T2W1
[11] = target: IL16_3, Q14005
IL16_3, Q14005, sequence (Q14005 1107-1207): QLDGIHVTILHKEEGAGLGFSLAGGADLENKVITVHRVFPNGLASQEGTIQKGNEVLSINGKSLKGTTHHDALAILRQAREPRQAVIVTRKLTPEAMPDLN

[12] = target: T6, APBA1_2, Q02410
[13] = target: GRIP2_4, Q9C0E4
GRIP2_4, Q9C0E4, sequence (Q9C0E4 446-548): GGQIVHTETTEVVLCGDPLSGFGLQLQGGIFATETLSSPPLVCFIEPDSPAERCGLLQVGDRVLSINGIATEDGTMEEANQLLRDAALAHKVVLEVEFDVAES

[14] = target: T7, DLG3_3, Q92796
[15] = target: T8, GRIP1_3, Q9Y3R0
[16] = target: T9, DLG3_1, Q92796
[17] = target: GRID2IP_2, A4D2P6
GRID2IP_2, A4D2P6, sequence (A4D2P6 272-370): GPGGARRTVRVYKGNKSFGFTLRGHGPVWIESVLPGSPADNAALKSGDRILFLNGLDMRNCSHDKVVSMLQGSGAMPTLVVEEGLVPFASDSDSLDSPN

[18] = target: PDLIM1, O00151
PDLIM1, O00151, sequence (O00151 1-87): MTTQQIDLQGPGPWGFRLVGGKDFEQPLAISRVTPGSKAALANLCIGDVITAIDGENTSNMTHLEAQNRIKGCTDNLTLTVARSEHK

[19] = target: T10, RHPN1, Q8TCX5
[20] = target: AHNAK1, Q09666
[21] = target: PICK1, Q9NRD5
PICK1, Q9NRD5, sequence (Q9NRD5 17-115): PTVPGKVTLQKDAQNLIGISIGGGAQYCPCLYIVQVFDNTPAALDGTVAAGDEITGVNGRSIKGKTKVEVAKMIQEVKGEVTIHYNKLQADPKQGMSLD

[22] = target: Inadl_8, Q8NI35
Inadl_8, Q8NI35, sequence (Q8NI35 1425-1530): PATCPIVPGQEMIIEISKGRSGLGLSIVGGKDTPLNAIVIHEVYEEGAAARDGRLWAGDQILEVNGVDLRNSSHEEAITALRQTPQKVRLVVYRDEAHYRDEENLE

[23] = target: T11, APBA1_1, Q02410
[24] = target: DLG4_1, P78352
DLG4_1, P78352, sequence (P78352 62-152): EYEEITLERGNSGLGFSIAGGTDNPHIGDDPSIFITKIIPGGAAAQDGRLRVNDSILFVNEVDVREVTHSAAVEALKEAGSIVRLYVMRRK

[25] = target: T12, GRIP1_5, Q9Y3R0
[26] = target: HTRA1, Q92743
HTRA1, Q92743, sequence (Q92743 360-477): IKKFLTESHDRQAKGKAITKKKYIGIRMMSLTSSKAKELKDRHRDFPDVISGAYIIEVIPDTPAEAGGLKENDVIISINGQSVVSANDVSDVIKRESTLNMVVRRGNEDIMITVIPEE

Binder	pKd [1]	pKd [2]	pKd [3]	pKd [4]	pKd [5]	pKd [6]	pKd [7]	pKd [8]	pKd [9]	pKd [10]	pKd [11]	pKd [12]	pKd [13]	pKd [14]	pKd [15]	pKd [16]	pKd [17]	pKd [18]	pKd [19]	pKd [20]	also measured
VYPNAKVELV [PDLIM4_iso2, P50479;P50479-1]	4.05	below the threshold	below the threshold	below the threshold	below the threshold	4.62	below the threshold	below the threshold	below the threshold	below the threshold	below the threshold	3.91	below the threshold	below the threshold	below the threshold	below the threshold	below the threshold	below the threshold	below the threshold	below the threshold	pKd [21]: 4.26; pKd [22]: below the threshold; pKd [23]: below the threshold; pKd [24]: below the threshold; pKd [25]: below the threshold; pKd [26]: 4.62
QGLAERISVL [PRKD2, Q9BZL6]	3.88	4.78	below the threshold	below the threshold	below the threshold	below the threshold	below the threshold	below the threshold	below the threshold	4.28	below the threshold	4.05	below the threshold	below the threshold	below the threshold	below the threshold	4.81	below the threshold	4.62	below the threshold	pKd [21]: 4.17; pKd [22]: 3.8; pKd [23]: below the threshold; pKd [24]: below the threshold; pKd [25]: below the threshold; pKd [26]: 4.77
EVEEFPETSV [TRPV3, Q8NET8]	4.12	5.83	below the threshold	3.63	below the threshold	3.98	below the threshold	5.2	below the threshold	4.47	below the threshold	4.33	3.55	4.54	3.49	3.87	4.39	3.6	4.68	below the threshold	pKd [21]: below the threshold; pKd [22]: 3.86; pKd [23]: below the threshold; pKd [24]: 4.36; pKd [25]: below the threshold; pKd [26]: 4.16
PAPSSGKDYV [CLDN1, O95832]	4.06	3.62	below the threshold	3.55	below the threshold	4.07	below the threshold	below the threshold	below the threshold	4.08	below the threshold	4.09	below the threshold	below the threshold	below the threshold	below the threshold	below the threshold	below the threshold	below the threshold	below the threshold	pKd [21]: below the threshold; pKd [22]: 3.92; pKd [23]: below the threshold; pKd [24]: 3.6; pKd [25]: below the threshold; pKd [26]: 3.94
